This is an account of results in article PMC7058617 (Signal Transduction and Targeted Therapy, 2020).

Assay [1] has as its target PD-L1 extracellular domain (PD-L1-ECD) (UniProt Q9NZQ7). The experiment in a line: SPR. The conditions noted are these: bispecific antibody.
For assay [2], the target named is human CD47 extracellular domain (CD47-ECD) (human) (UniProt Q08722). In words: SPR. The conditions noted are these: bispecific antibody.
The target of assay [3] is T1, human CD47 extracellular domain (CD47-ECD) (human, UniProt Q08722, N-linked glycosylation observed at all five potential sites in the complex structure (N32 and N55 among them)).
T1 construct: CD47, human, extracellular domain; also called WT CD47-ECD; human CD47-ECD antigen
T1 sequence (Q08722 19-141): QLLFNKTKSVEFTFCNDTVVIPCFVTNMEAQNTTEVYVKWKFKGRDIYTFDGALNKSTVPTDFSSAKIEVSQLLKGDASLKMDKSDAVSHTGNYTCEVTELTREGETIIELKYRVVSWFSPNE
In words: SPR; h4C1 and CD47-ECD proteins (WT, N32A, N55A); who was immobilised and the conditions are not given. The conditions noted are these: both partners purified.

Chain of human CD47 extracellular domain (CD47-ECD) (human) (Q08722 19-141): as above
Chain of PD-L1 extracellular domain (PD-L1-ECD) (Q9NZQ7 19-238): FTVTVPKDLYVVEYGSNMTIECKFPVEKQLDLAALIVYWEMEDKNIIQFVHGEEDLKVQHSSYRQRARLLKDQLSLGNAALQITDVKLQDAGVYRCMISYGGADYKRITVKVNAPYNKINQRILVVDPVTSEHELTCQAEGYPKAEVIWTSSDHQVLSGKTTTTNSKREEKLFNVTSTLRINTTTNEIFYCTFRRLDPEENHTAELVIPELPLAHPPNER

Regarding “CD47/PD-L1 dual-targeting bispecific antibody (DVD-Ig format) (from UniProt P01861)”, the dissociation constant Kd was determined as 740 pM in assay [1] and 17400 pM in assay [2].

B1: Humanized 4C1 (h4C1) monoclonal antibody (antibody, V domains shown)
VH: QVQLVQSGAEVKKPGASVKVSCKASGYTFTSYVMHWVRQAPGQRLEWMGYINPYNDGTKYNEKFKGKATLTSDKSTSTAYMELSSLRSEDTAVYYCARTEGHFYVSWFAYWGQGTLVTVSS
VL: DIQMTQSPSSLSASVGDRVTISCRTSQDISNYLNWYQQKPGKAPKLLIYYTSRLHSGVPSRFSGSGSGTDYTFTISSLQPEDIATYYCQQGNTLPFTFGQGTKLEIK
notes: Humanised from the murine mAb m4C1 (raised in mice immunised with human CD47); also called h4C1 mAb
In turn, B1 returned a Kd in assay [3] of 850 pM.
